According to publication PMC7431413, “Selective inhibition of STAT3 signaling using monobodies targeting the coiled-coil and N-terminal domains” (Nature Communications, 2020):
Where no end group is shown, it is not given here. [ ]: non-standard residue; d: D form. pY = N[C@@H](Cc1ccc(OP(=O)(O)O)cc1)C(=O)O

Molecular target: T1, recombinant core fragment (CF) of STAT3 (human, UniProt P40763 127-722)
T1 construct: STAT3, human, core fragment (CC, DBD and SH2 domains), a.a; For the crystal the methods say 'TEV cleaved-MS3-6 and STAT3-CF'; it is not clear whether the tags of STAT3-CF were cut too; also called STAT3-CF; source: E. coli BL21 (DE3), pHBT vector, purified (Ni-NTA, SEC)
T1 sequence (P40763 127-722): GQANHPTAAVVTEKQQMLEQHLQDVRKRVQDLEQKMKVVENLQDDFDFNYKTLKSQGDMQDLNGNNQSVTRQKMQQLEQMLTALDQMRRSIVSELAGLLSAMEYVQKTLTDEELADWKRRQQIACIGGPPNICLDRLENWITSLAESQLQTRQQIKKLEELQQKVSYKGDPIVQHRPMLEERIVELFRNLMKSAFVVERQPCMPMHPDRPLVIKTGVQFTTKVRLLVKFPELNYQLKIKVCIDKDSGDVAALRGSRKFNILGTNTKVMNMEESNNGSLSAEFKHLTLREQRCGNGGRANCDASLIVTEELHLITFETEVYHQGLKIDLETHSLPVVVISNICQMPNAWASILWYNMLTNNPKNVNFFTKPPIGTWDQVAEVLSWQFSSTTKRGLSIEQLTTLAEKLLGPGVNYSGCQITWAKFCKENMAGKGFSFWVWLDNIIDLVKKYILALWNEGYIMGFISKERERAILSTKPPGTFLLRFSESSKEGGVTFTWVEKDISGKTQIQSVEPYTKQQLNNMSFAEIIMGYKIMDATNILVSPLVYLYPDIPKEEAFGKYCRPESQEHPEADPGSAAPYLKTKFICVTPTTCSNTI
Experiment: fluorescence polarisation; fluorescent gp130 pY-peptide and recombinant STAT3-CF (Supplementary Fig. 3a); TBS (50 mM Tris pH 7.5, 150 mM NaCl)
Details: both partners purified

- Kd: 930 nM
B1: fluorescent pY-peptide encompassing the pY905 docking site of gp130 (peptide)
peptide: GMPKS[pY]LPQTVR-NH2
modifications: not fully specified (N-terminus)
notes: gp130, cytosolic tail around the Y905 docking site; also called gp130 pY-peptide; phospho-gp130 peptide; source: synthetic peptide
